Substrate: C[N+](C)(C)[C@@H](Cc1cnc([S+]([O-])C[C@H](N)C(=O)O)[nH]1)C(=O)[O-]
Test: purified protein
Conditions: pH 8.0, 25 °C, 1 mM DTT

B1: Egt2 (Neurospora crassa OR74A) (protein)
chain: MVATTVELPLQQKADAAQTVTGPLPFGNSLLKEFVLDPAYRNLNHGSFGTIPSAIQQKLRSYQTAAEARPCPFLRYQTPVLLDESRAAVANLLKVPVETVVFVANATMGVNTVLRNIVWSADGKDEILYFDTIYGACGKTIDYVIEDKRGIVSSRCIPLIYPAEDDDVVAAFRDAIKKSREEGKRPRLAVIDVVSSMPGVRFPFEDIVKICKEEEIISCVDGAQGIGMVDLKITETDPDFLISNCHKWLFTPRGCAVFYVPVRNQHLIRSTLPTSHGFVPQVGNRFNPLVPAGNKSAFVSNFEFVGTVDNSPFFCVKDAIKWREEVLGGEERIMEYMTKLAREGGQKVAEILGTRVLENSTGTLIRCAMVNIALPFVVGEDPKAPVKLTEKEEKDVEGLYEIPHEEANMAFKWMYNVLQDEFNTFVPMTFHRRRFWARLSAQVYLEMSDFEWAGKTLKELCERVAKGEYKESA
- Km: 155 ± 10 µM
- kcat: 8.7 ± 0.1 s⁻¹
